Test results from the DeepSol protein solubility set.

test: soluble on expression in E. coli; label from the status in PepcDB or PDB records

Row | Sequence | soluble on expression in E. coli
1 | MDGAGAEEVLAPLRLAVRQQGDLVRKLKEDKAPQVDVDKAVAELKARKRVLEAKELALQPKDDIVDRAKMEDTLKRRFFYDQAFAIYGGVSGLYDFGPVGCALKNNIIQTWRQHFIQEEQILEIDCTMLTPEPVLKTSGHVDKFADFMVKDVKNGECFRADHLLKAHLQKLMSDKKCSVEKKSEMESVLAQLDNYGQQELADLFVNYNVKSPITGNDLSPPVSFNLMFKTFIGPGGNMPGYLRPETAQGIFLNFKRLLEFNQGKLPFAAAQIGNSFRNEISPRSGLIRVREFTMAEIEHFVDPSEKDHPKFQNVADLHLYLYSAKAQVSGQSARKMRLGDAVEQGVINNTVLGYFIGRIYLYLTKVGISPDKLRFRQHMENEMAHYACDCWDAESKTSYGWIEIVGCADRSCYDLSCHARATKVPLVAEKPLKEPKTVNVVQFEPSKGAIGKAYKKDAKLVMEYLAICDECYITEMEMLLNEKGEFTIETEGKTFQLTKDMINVKRFQKTLYVEEVVPNVIEPSFGLGRIMYTVFEHTFHVREGDEQRTFFSFPAVVAPFKCSVLPLSQNQEFMPFVKELSEALTRHGVSHKVDDSSGSIGRRYARTDEIGVAFGVTIDFDTVNKTPHTATLRDRDSMRQIRAEISELPSIVQDLANGNITWADVEARYPLFEGQETGKKETIEELEHHHHHH | soluble
2 | MHSALWVSKTGMAAQDTKMTAISNNLANVNTVGFKRDRVVFEDLFYSIQRQPGAQVDQVNELPSGVQLGSGVRVVGTQKVFTQGNTQNTTQDLDLAVMGQGFFQIENSDGQIMYTRNGQFHINSEGLMVNSQGLPLEPQIQI | not soluble
3 | MGVELSLDPPVCPIQANGGVSTHKIINHCDKMLAYKIKSSNNSNYSVNTIFGLIQIGYTADLIITRKPGKPQADKLVIQFAAVEQTCRDGCICQGCICQWTANWRVLWRDDHQAVSC | not soluble
4 | MSLGNDNEKSTTKTSPDKIKFLETSELLTLNTTAEEDFASFTAQNQVFEGLYTLDQKDNFVPGVAGGMPEISADQTKYTIKLKKNAKWSDGSQVTADDFVYAWRRAVDPKTAPGYSALFKDSIKNATEINEGKLPVTDLGVVATDPTTLEITLKKPVPYFISLLSFETFFPQKESFVKKQGDKYGTDSAHTLYNGPFVMKDWGGNITNKWTYAKNDQYWDKDNVKVNEIDVQVAKDINAGVNLYNTNEADRVPLSGDFAKQYKDKKDFQTEKDALISYLRMNQKRDGKATPLANNSLRHALNLAVDKKQLTDRILGDGSFPANGLLPKDFVQNPTTGADFRTDSGDHLVYNKEEALKYWKQAQKELGTDKVTIELLGDDQETTKTIFAYLKAQFEDNLPGVTIKVKNMPSKSATQLTSDGNYDLSLAAWMPDFKDPWTYSSLFLSDYFNNHMSYNSPAYDRLVKSTDTTLATKPEERWNAFVASEKVLLDDDAAILPLYQHQTAVLQRTDITGVQKHAFGSPYSYKFIRVEKEGHHHHHH | soluble
5 | MNRQIVRSALFVPATRPERIPKALASGADRVIVDLEDAVEEGLKVEARANLRRFLVDTPEARVLVRINAAEHPGHADDLALCRDHAGVIGLLLPKVESAAQVRHAAVASGKPVWPIVESARGLAALGEIAAAAGVERLSFGSLDLALDLDLNSGSNAAEQILGHARYALLLQTRLAGLAPPLDGVYPAIQNRAGLVEAVRFARDMGFGGLLCIHPSQVEPIHQTLMPSPAELEWARRVAEAGASGAGVFVVDGEMVDAPVLGRARRLLERAGEGG | not soluble
6 | MGSDKIHHHHHHVQLSENVLLLGNRHFNYFLVGKKEAAIIECGVSGGVYSFQKQWEKLPQKPEVKYLVAMHAHFDHVCGIPALQKMFPAAVLLASSPAEAVLKKAKIMENFFAQDEKMLDLLADEGIIPRGLQSPNVTEIALDKLIAEGDEIKLGGDLNIKVLDAPGHSPCSLACYLPAEQVMFISDACGFQISDEDIFPVFFQAYDIYLETIKRLMSYPSKLLAIPHERIWTGRNIDAFYRRALSSAEQAFNIIRDLLDQGWEDEKIEKELFARYYKGSLKIYTPENIQQCVQILLRRVKEKL | not soluble
7 | MGSDKIHHHHHHMHININMDWLSAKGLPILGLDISTTAIKLVELSDAGKGMLRVERYIIEPLPKDAVSDGNIANLDQVADTLRHAWKTLGSRVKNVALALPSSAVITKKILAPASLTGIELENQVEAEANQVIPFALDEVNLDFQVLGPSPGSPDDMQILLAAARKEKVEDRVAAVEAAGLKALIMDVESYATQAAYEQIAHLLPNGGAGQTVAIIDVGAQNMHINILNDNESVYLREHGFGGNQLNNEIARRYGMSGEEAENAKRKGSLPESYELEVLQPYSETLAMEIGRALQLFTTSTQYRKIDQILLAGGGAMIPGLDEVVAQRTGTPTLVVNPFANMAVASKVRPQALTADAPSLFVACGLAMRRFDSQ | not soluble
8 | MSLGKLFGTDGIRGVTNTELQPEFALKIGKAIGTYFGKGARILIGRDVRAGGDMLLKAVESGLLSSGVLVYEAGMAPTPAFQYGVKALGYDGGVIITASHNPAEYNGIKVLSPHGIEISREDEDKIEDIYFNSRFHVVEWNGLVNDVKREDKVIETYLRGILSHVDTEKIKSKKYKVLIDPANSVGTLVTPIVARELGCKVFTINGNLDPLFSARTPEPTFESLTESAKVAKQLGVDLAVAHDGDADRAIFIDSMGRVQWGDRSGTLLSYWASVKAPNLPRRIFTAVSSSSLVEEYLKKYNIEVKWTKVGSIDIAHMLFKEKGVAGFEENGGFMYPPHQTVRDGAMSFALMLDMMASENESSAELFNRLPVYYLVKTKVRVTEKSDIKKIYDEVMNKYGNYGNTVTIDGVKIIGSDFWLLVRKSGTEPIIRILVEAKDENKSKELAKELEKLVSELVEGHHHHHH | soluble
9 | MGSDKIHHHHHHMAKKAKVQFECQSCGYVSPKYLGRCPNCGQWNSMVEEVIQDTSDRRARVSLTGKKTQPQRLSEVIPKKEPRVKTELVELNRVLGGGVVPGSLVLIGGDPGIGKSTLLLQVSQQLAATGGTVLYVSGEESAEQIKLRAERLGTVNETFYLYAETDMHEISRAIEKLEPDYVIIDSIQTMTQPDVTSVAGSVSQVRETTAELLKLAKTNGIAIFIVGHVTKEGSIAGPRMLEHMVDTVLYFEGDKHHTFRILRAVKNRFGSTNEIGIFEMQTHGLVEVMNPSQVFLEERLEGATGSSIVVAMEGSRPILVEIQALVTPTMFGNAKRTTTGLDFNRVSLIMAVLEKRAGLLLQNQDAYLKAAGGVKINEPAIDLALAISIASSYKEKGTSSSECFIGEIGLTGEIRRVNSIEQRVREAQKLGFTKVYVPKNNLGGWEAPEGIEIIGVSTIGETLRKVFK | not soluble
10 | MSLSKENIRKTSKIETKSKEFSRQNMIDLFDLYFYEDCPYQDESAELLRLVGRGKMRIVSRENGTSACAGDLAGYYEKKGLKVLNYFRDGENFKPGDAIFEAEGDIKLIFRFWRVSQTFLTMMCAIATKTASMVSEARRTNPDIIIATSRKTHPGARIFELKAVRAGGGDIHRNSLSDSIQISQNHLEVAGELGKLRAMKKIEIEPRSREEAFKYAEMSDIMLLDHLSPEELRELGPELKELNPELELAVGGIEAKRIPEYAPFVDIIVISAPYYANPLDFTTKIEREGHHHHHH | soluble
11 | MTAMDHQFPSWIVVNESTSISREQLNYLLETYNVFYENQKNLHILYGQTEDGQLIVEGMLDIFWGVKRPIQLKIQDEKQISSFDLLNTPETFSSKGRMTRWGEFDDLYRISELDRTHVLASEARHSPEDYLSYHSTLTPYADEEPESPLLYRTMSEAESPLLYRTMSEAALVRKRMRAPEMYRKDRMGVLSNHRASINGHVYDHETSIFTPTFGSETKVRANSIMRTEEVIKQLLQKFKIENSPRDFALYIIFGTGEQRKLKKTDVPLLQRLLQGPSKSNARIFLMDKDAEEISRDVAPYINFHFSFLESILQRLDEEEKMEIERIMAKFNTERAFILKCLQSKQAAKTETTV | soluble
12 | MVRDMKHTVEVMIPEAEIKARIAELGRQITERYKDSGSDMVLVGLLRGSFMFMADLCREVQVSHEVDFMTASSYGSGMSTTRDLKILKDLDEDIRGKDVLIVEDIIDSGNTLSKVREILSLREPKSLAICTLLDKPSRREVNVPVEFIGFSIPDEFVVGYGIDYAQRYRHLPYIGKVILLDE | soluble
13 | AGTGVVSVQFNNGSSPASSNSIYARFKVTNTSGSPINLADLKLRYYYTQDADKPLTFWCDHAGYMSGSNYIDATSKVTGSFKAVSPAVTNADHYLEVALNSDAGSLPAGGSIEIQTRFARNDWSNFDQSNDWSYTAAGSYMDWQKISAFVGGTLAYGSTP | soluble
